# Publication PMC4549274
# How the values were obtained:
# Assay in all cases: native MS; nano-ESI native MS, 15 μM monomer, buffer-exchanged into 100 mM ammonium acetate pH 8.5, positive ion mode
# [1] = biological target: CrRbcX-IIa(33–189) (Chlamydomonas reinhardtii)
# [2] = biological target: CrRbcX-IIa(34–156) (Chlamydomonas reinhardtii)
# [3] = biological target: CrRbcX-IIa(34–189) (Chlamydomonas reinhardtii)
substance,measurement,setting,value
CrRbcX-IIa(33–189) (natural protein),stoichiometry N,[1],2
CrRbcX-IIa(34–156) (domain or fragment),stoichiometry N,[2],4
CrRbcX-IIa(34–189) (domain or fragment),stoichiometry N,[3],4
